Data reported in patent US20220073922, “Aptamers and use thereof” (Aptitude Medical Systems, Inc., published 2022).

T1: VEGF-165 (VEGFA isoform 165) (Homo sapiens)
T1 chain: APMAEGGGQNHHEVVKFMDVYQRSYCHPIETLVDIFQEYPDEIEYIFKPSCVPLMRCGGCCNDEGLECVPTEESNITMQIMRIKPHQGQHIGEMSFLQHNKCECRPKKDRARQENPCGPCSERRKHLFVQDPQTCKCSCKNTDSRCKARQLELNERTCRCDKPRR


How the values were obtained:
[1] = target: T1, VEGF-165 (VEGFA isoform 165); assay: flow; PBSMCT, 37 C; conditions: chain copies: 2 (inferred), label: biotin
Method: (§1) Truncated and modified variants of the anti-VEGF aptamers of the present disclosure were prepared by LGC Biosearch Technologies (Novato, Calif.), and their binding affinity to corresponding targets were examined. Briefly, the equilibrium binding constants of the enriched libraries were measured using magnetic bead partitioning. Biotinylated anti-VEGF aptamers were conjugated to the 1 μm streptavidin-coated MyOne Streptavidin Cl magnetic beads (Thermo Fisher Scientific, 65002). Binding assays were performed by incubating fixed concentration of anti-VEGF aptamer (0.01 nM) and target protein at concentrations ranging from 10⁻¹² to 10⁻⁸ M in PBSMCT buffer (DPBS, pH 7.2 with 2.5 mM MgCl₂, 1 mM CaCl₂) and 0.01% TWEEN-20) at 37° C. for 90 minutes. Bound target protein was partitioned by magnetic separation and subsequently labeled via fluorescent anti-VEGF or anti-His-tag antibody. The fraction of anti-VEGF aptamer bound was quantified by flow cytometry (BD Accuri C6 Plus). Raw binding data were corrected for nonspecific background binding of target protein to empty magnetic beads. The fraction of bound anti-VEGF aptamer was plotted as a function of protein concentration and a non-linear curve-fitting algorithm (Langmuir one-site binding model) was used to extract equilibrium binding constants (KD values) from the data (FIG. 1).

[2] = target: T2, VEGF-121 (VEGFA isoform 121) (Homo sapiens, UniProt P15692 SEQ:1-121); assay: flow; PBSMCT, 37 C; conditions: chain copies: 2 (inferred), label: biotin
Method: as §1

Angiopoietin-2 (Ang2) [3] = target: T3, Angiopoietin-2 (Ang2) (Homo sapiens, UniProt O15123 O15123:19-496); assay: flow; conditions: tags: His tag, R&D Systems 623-AN; label: biotin
[4] = target: T2, VEGF-121 (VEGFA isoform 121); assay: flow; conditions: chain copies: 2 (inferred); label: biotin
Angiopoietin-2 (Ang2) [5] = target: T3, Angiopoietin-2 (Ang2); assay: flow; PBSMCT, 37 C; conditions: tags: His tag, R&D Systems 623-AN; label: biotin
Method: Various mutations and truncated variants of a representative anti-Ang2 aptamer (AMS0525) were obtained and their binding affinity to Ang2 were measured using magnetic bead partitioning. Biotinylated anti-Ang2 aptamers were conjugated to the 1 μm streptavidin-coated MyOne Streptavidin Cl magnetic beads (Thermo Fisher Scientific, 65002). Binding assays were performed by incubating fixed concentration of aptamer (0.01 nM) and Ang2 protein at concentrations ranging from 10⁻¹² to 10⁻⁸ M in PBSMCT buffer (DPBS, pH 7.2 with 2.5 mM MgCl₂, 1 mM CaCl₂) and 0.01% TWEEN-20) at 37° C. for 90 minutes. Bound target protein was partitioned by magnetic separation and subsequently labeled via fluorescent anti-His-tag antibody. The fraction of anti-Ang2 aptamer bound was quantified by flow cytometry (BD Accuri C6 Plus). Raw binding data were corrected for nonspecific background binding of target protein to empty magnetic beads. The fraction of bound anti-Ang2 aptamer was plotted as a function of protein concentration and a non-linear curve-fitting algorithm (Langmuir one-site binding model) was used to extract equilibrium binding constants (KD values) from the data (FIG. 4A).

T3 sequence (O15123 19-496, one chain of several): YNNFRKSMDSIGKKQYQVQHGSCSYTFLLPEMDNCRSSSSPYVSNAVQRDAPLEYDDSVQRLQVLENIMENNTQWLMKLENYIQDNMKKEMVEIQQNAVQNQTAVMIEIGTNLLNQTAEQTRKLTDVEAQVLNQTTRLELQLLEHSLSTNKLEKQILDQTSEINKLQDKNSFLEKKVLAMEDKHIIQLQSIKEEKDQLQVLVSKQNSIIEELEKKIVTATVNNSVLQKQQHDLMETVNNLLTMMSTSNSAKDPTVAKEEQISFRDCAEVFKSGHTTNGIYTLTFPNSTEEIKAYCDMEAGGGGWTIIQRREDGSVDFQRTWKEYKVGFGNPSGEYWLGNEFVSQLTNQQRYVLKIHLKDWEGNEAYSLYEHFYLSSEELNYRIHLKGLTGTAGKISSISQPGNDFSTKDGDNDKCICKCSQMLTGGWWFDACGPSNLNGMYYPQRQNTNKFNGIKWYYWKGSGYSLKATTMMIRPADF

| Binder | Kd [1] | Kd [2] | other results |
| --- | --- | --- | --- |
| UCCUUAGAUGGCUAACACGUAUAUUUGUGGAGAUGCACUA (ssRNA, 2'-F all positions) [AMS0421.1] | 101 pM | 49 pM |  |
| CCGGCCAUUGGUGGAGAUUAUCCUUUGAGUACGGUUAUUC (ssRNA, 2'-F all positions) [AMS0420] | 870 pM | 82 pM |  |
| GGUUUAUCUUAACUUUCUGCUACGAUACAGUUUUUGUUGA (ssRNA, 2'-F all positions) [AMS0411] |  | 1190 pM |  |
| GCGUAGAUGGCUAACACUAUUGUGGAGAUGCACUACGC (ssRNA, 2'-F all positions) [AMS0421.3] | 98 pM | 51 pM |  |
| AMSB104 (ssRNA, 2'-F all positions) RNA: CGCAUAGAUAAGCCAACAAACGUACAUUCUCUGUUAGUAUUUUCUGCGUUUCGCUAGAUGGCUAACACGUAUAUUUGUGGAGAUGCACUAGCG |  |  | Kd (Angiopoietin-2 (Ang2) [3]): 159 pM; Kd [4]: 87 pM |
| CCGAUAAGCCAACAAACGUACAUUCUCUGUUAGUAUUCGG (ssRNA, 2'-F all positions) [AMS0525.4] |  |  | Kd (Angiopoietin-2 (Ang2) [5]): > 1000 pM |
| CGUGGAGAUGCAUUCUUCGAGAUUGGCUAACACG (ssRNA, 2'-F all positions) [AMS0425.3] | 981 pM | 245 pM |  |
| AUUCUGUCUUUUUAAAUAAUGUCCCCUUGUUGCACAUUACAGAA (ssRNA, 2'-F all positions) [AMS0403] | 111 pM |  |  |
| GCCUUAGAUAAGCCAACAAACGUACAUUCUCUGUUAGUAUUUUCAGGC (ssRNA, 2'-F all positions) [AMS0525.3] |  |  | Kd (Angiopoietin-2 (Ang2) [5]): 33 pM |
| CGCAUAGAUAAGCCAACAAACGUACAUUCUCUGUUAGUAUUUUCUGCG (ssRNA, LNA at 1-4 and 45-48, 2'-F elsewhere) [AMS0525.6] |  |  | Kd (Angiopoietin-2 (Ang2) [5]): 29 pM |
| CGCAUAGAUAAGCCAACAAACGUACAUUCUCUGUUAGUAUUUUCUGCG (ssRNA, 2'-OMe at 1-4 and 45-48, 2'-F elsewhere) [AMS0525.5] |  |  | Kd (Angiopoietin-2 (Ang2) [5]): 43 pM |
| GCUCUUCGGUGUUAACUACCAAUCGUUGAUCGUUUUGCAAAAAAUUCC (ssRNA, 2'-F all positions) [AMS0406] | 324 pM |  |  |
| GCUCUUCAAUGUUAACUACCAAUCGUUGAUCGUUUUGCAGAAAAUUCC (ssRNA, 2'-F all positions) [AMS0405] | 1010 pM |  |  |
| AMSB102 (ssRNA, 2'-F all positions) RNA: CGUGGAGAUGCAUUCUGUCGAAGAUUGGCUAACACGCGCAUAGAUAAGCCAACAAACGUACAUUCUCUGUUAGUAUUUUCUGCG |  |  | Kd (Angiopoietin-2 (Ang2) [3]): 56 pM; Kd [4]: 92 pM |
| UUUCGCUAGAUGGCUAACACGUAUAUUUGUGGAGAUGCACUAGCG (ssRNA, 2'-F all positions) [AMS0421] |  |  | Kd ([1]; stem-loop with bulges): 96 pM; Kd ([2]; stem-loop with bulges): 45 pM |
| CGCUAGAUGGCUAACACUAUUGUGGAGAUGCACUAGCG (ssRNA, 2'-OMe at 1-3 and 36-38, 2'-F elsewhere) [AMS0427.1] | 92 pM | 47 pM |  |
| CGCUAGAUGGCUAACACUAUUGUGGAGAUGCACUAGCG (ssRNA, LNA at 1-3 and 36-38, 2'-F elsewhere) [AMS0427.2] | 87 pM | 43 pM |  |
| CGCUAGUGGCGAACACGUAUAUUUGUGGCGAUGCACUAGCG (ssRNA, 2'-F all positions) [AMS0421.4] | 1920 pM | 471 pM |  |
| CAGGUGGAGAUGCAUUCUGUCGAAGAUUGGCUAACACCUG (ssRNA, 2'-F all positions) [AMS0425.10] | 652 pM | 107 pM |  |

| Binder | Kd [1] | Kd [2] | other results |
| --- | --- | --- | --- |
| GCUCUUCAGCCCCGCGCCGGGUCCCACUCUGCGCCGCUC (ssRNA, 2'-F all positions) [AMS0401] | 87 pM |  |  |
| AGUUAUUUGGUGGAGAGGAUCCAUUUAGCUUAUACAAUUC (ssRNA, 2'-F all positions) [AMS0419] | 990 pM | 95 pM |  |
| CGCUAGAUGGCCUAACACGUAUAUUUGUGGAGAUGGCACUAGCG (ssRNA, 2'-F all positions) [AMS0421.5] | 879 pM | 511 pM |  |
| GGAAAACAGUAUAAUGUCUUGUUUCUUCUC (ssRNA, 2'-F all positions) [AMS0410] |  | 11800 pM |  |
| CCAACCGUGUAUCUGUCUUGCUUGCGGCGGUUUUGUUGUG (ssRNA, 2'-F all positions) [AMS0416] | 29400 pM | 654 pM |  |
| GCGGAUUGGCUAACACGGUCGACGUGGAGAUGCAUUCCGC (ssRNA, 2'-F all positions) [AMS0430] |  |  | Kd ([1]; stem-loop with bulges): 176 pM; Kd ([2]; stem-loop with bulges): 104 pM |
| GCCGUGGAGAUGCGUUCCGUCGAGGAUCGGCUAACACGGC (ssRNA, 2'-F all positions) [AMS0425.12] | 678 pM | 126 pM |  |
| UCCGCUUGCGGAGCACCUUCUGUAUUCUGC (ssRNA, 2'-F all positions) [AMS0409] |  | 14200 pM |  |
| AMS0525 (ssRNA, 2'-F all positions) RNA: GCAUAGAUAAGCCAACAAACGUACAUUCUCUGUUAGUAUUUUCUGCACACCGUCGCUUAGU |  |  | Kd (Angiopoietin-2 (Ang2) [5]): 404 pM |
| CGUGGAGAUGCAUUCUGUCGAGGAUUGGCUAACACGCGAA (ssRNA, 2'-F all positions) [AMS0425] | 102 pM | 92 pM |  |
| AMSB101 (ssRNA, 2'-F all positions) RNA: UUUCGCUAGAUGGCUAACACGUAUAUUUGUGGAGAUGCACUAGCGCGCAUAGAUAAGCCAACAAACGUACAUUCUCUGUUAGUAUUUUCUGCG |  |  | Kd (Angiopoietin-2 (Ang2) [3]): 138 pM; Kd [4]: 125 pM |
| UUCUGUCUUUUUAGAUAAUGUCCCCUUGUUGCACAUUACA (ssRNA, 2'-F all positions) [AMS0404] | 419 pM |  |  |
| CGUGGAGAUGCAUUCUGUCGAGGAUUGGCUAACACG (ssRNA, 2'-F all positions) [AMS0425.1] | 356 pM | 294 pM |  |
| CGUGGAGAUGCGUUCCGUCGAGGAUCGGCUAACACG (ssRNA, 2'-F all positions) [AMS0425.8] | 876 pM | 287 pM |  |
| GUGCUUCAUAUCCGUCCCCCCCUUGCUGCG (ssRNA, 2'-F all positions) [AMS0402] | 98 pM |  |  |
| UCCGCUUGCGGAGCAGCUUCUGUAUUCUGC (ssRNA, 2'-F all positions) [AMS0407] |  | 761 pM |  |
| UCCGCUUGCGGAGCAUCUUCUGUAUUCUGC (ssRNA, 2'-F all positions) [AMS0408] |  | 10100 pM |  |
| GCCGUGGAGAUGCGUUCCGUCGGGAUCGGCUAACACGGC (ssRNA, 2'-F all positions) [AMS0425.11] | 349 pM | 124 pM |  |
